This note sets out measurements from patent publication US20220213193A1 (BROWN UNIVERSITY, published 2022).

The target of the assay is T1, recombinant human (rh) CHI3L1 (human, UniProt P36222 22-383).
T1 construct: also called rhCHI311; human CHI3L1
As to the kind of experiment: competitive ELISA on recombinant antigen. (In general: In an ELISA, binding on a coated surface is turned into a signal by an enzyme label.)

T1 sequence (P36222 22-383 limits assumed): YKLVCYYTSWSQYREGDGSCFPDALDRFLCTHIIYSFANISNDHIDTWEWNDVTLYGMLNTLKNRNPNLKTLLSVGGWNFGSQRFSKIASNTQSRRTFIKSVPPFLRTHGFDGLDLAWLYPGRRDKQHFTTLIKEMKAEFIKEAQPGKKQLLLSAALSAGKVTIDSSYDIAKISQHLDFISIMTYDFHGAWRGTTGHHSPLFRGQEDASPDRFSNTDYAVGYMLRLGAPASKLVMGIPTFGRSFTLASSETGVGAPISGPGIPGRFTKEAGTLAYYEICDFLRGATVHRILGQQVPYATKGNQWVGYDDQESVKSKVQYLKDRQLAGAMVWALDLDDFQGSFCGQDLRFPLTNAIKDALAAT

B1: anti-human CHI3L1 antibody FRG (antibody, V domains shown)
VH: QIQLVQSGPELKKPGETVKISCKASGYTFTNYGMNWVKQAPGKGLKWMGWINTYTGEPTYADDFKGRFAFSLETSASTAYLQINNLRNEDMSTYFCARLGYGKFYVMDYWGQGTSVTVSS
VL: DVVMTQTPLSLPVSLGDQASISCRSSQSLVHSNGNTYLHWYLQKPGQSPKLLIYKVSNRFSGVPDRFSGSGSGTDFTLKISRVEAEDLGVYFCSQSTHVTWTFGGGTKLEIK
notes: also called anti-CHI3L1; α-CHI3L1
Broadly, the Kd is the concentration at which binding is half-saturated. Take B1: the equilibrium dissociation constant (Kd) was approximately 1 nM.
